Assay results reported in patent US20220098591, “STEM-LOOP COMPOSITIONS AND METHODS FOR INHIBITING VASCULAR ENDOTHELIAL GROWTN FACTOR” (DRIVE THERAPEUTICS LLC, published 2022).

Key:
VEGF-A121 [1] = target: T1, VEGF-A121 (Homo sapiens, UniProt P15692 SEQ:1-121); assay: competition; TR-FRET; details: tags: glycan-biotinylated for SPR/FRET/AlphaLISA; Acro BioSystems, Biolegend; chain copies: 2 (stated)
Protocol: Briefly, for competition TR-FRET, 2-fold dilutions of thermally equilibrated aptamers were made in TR-FRET Buffer (50 mM MOPS, pH 7.4, 125 mM NaCl, 5 mM KCl, 50 μM CHAPS, 0.1 mg/mL BSA, 1 mM CaCl₂, and 1 mM MgCl₂). 5 μL of aptamer or control solution was added to a 15 μL mix of glycan biotinylated […] (5 nM final), ALEXA FLUOR® 647-labeled Aptamer (30 nM final), and Streptavidin-Eu (Perkin Elmer; 2.5 nM final) in a black wall low volume 384 well plate (Greiner). For control, 5 μl of 1000-fold excess of unlabeled parent aptamer or 5 μl TR-FRET buffer alone was added to the mix of ALEXA FLUOR® 647-labeled aptamer, biotin-VEGF-A, and Streptavidin-Eu. The plate was covered with a plate seal and subsequently incubated in the dark for 1 hour at room temperature. The plate was read on a Biotek CYTATION™ 5 plate reader. Samples were excited at 330 nm and fluorescent values were collected at 665 nm. Data analysis was performed by subtracting the background value and plotting as percent inhibition, normalized to baseline in the absence of competitor. The values were fit by [Inhibitor] vs. response-Variable slope (four parameters) using GraphPad Prism Version 7.0 and then normalized to aptamer control to obtain an IC₅₀ relative to parent aptamer. Data is presented as log values of relative IC₅₀.
Activity of each of these variants were tested using a time resolved competition TR-FRET assay, as described in Example 7, in which a labeled parent was competed with increasing concentrations of unlabeled variants for binding to VEGF-A₁₂₁.

VEGF-A121 [2] = target: T1, VEGF-A121; assay: competition; TR-FRET; details: tags: glycan-biotinylated for SPR/FRET/AlphaLISA; Acro BioSystems, Biolegend; chain copies: 2 (stated); remark: listed apart in the source
Target sequence in this assay (P15692 other isoform, or with tags, fused parts or gaps): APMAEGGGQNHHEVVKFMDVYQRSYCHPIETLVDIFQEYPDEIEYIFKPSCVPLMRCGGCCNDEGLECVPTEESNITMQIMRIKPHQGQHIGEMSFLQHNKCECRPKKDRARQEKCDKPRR

Binder | binding signal (VEGF-A121 [1]) | also measured
AGGCCGCCUCCGCGCGGAGGGGUUCAUUUCCCGUUUGGCGGCUU (ssRNA, all G 2'-F; A,C,U 2'-OMe; 5' C6NH2; 3' idT) [Aptamer 108] | > 100 fold worse IC50 vs Aptamer 26 | 
AGGCCGCCUCCGCGCGGAGGUCUUUCAUUAGACCGUUUGGCGGCUU (ssRNA, all G 2'-F; A,C,U 2'-OMe; 5' C6NH2; 3' idT) [Aptamer 129] | > 100 fold worse IC50 vs Aptamer 26 | 
AGGCCGCAUCCGCGCGGAGGGGUUUCAUUAUCCCGUUUUGCGGCUU (ssRNA, all G 2'-F; A,C,U 2'-OMe; 5' C6NH2; 3' idT) [Aptamer 122] |  | binding result (VEGF-A121 [1]): binds
AGGCCGCCUCCCCGCGGAGGGGUUUCAUUAUCCCGUUUGGCGGCUU (ssRNA, all G 2'-F; A,C,U 2'-OMe; 5' C6NH2; 3' idT) [Aptamer 150] | > 100 fold worse IC50 vs Aptamer 26 | 
AGGCCGCCUCCGCGCGGAGGGGUUUCAUUAUCCCGCUUGGCGGCUU (ssRNA, all G 2'-F; A,C,U 2'-OMe; 5' C6NH2; 3' idT) [Aptamer 166] |  | binding result (VEGF-A121 [1]): binds
AGGCCGCCUCCGCGCGGAGGUGUUUCAUUACACCGUUUGGCGGCUU (ssRNA, all G 2'-F; A,C,U 2'-OMe; 5' C6NH2; 3' idT) [Aptamer 130] | > 100 fold worse IC50 vs Aptamer 26 | 
AGGCCGCCUCCGCGUGGAGGGGUUUCAUUAUCCCGUUUGGCGGCUU (ssRNA, all G 2'-F; A,C,U 2'-OMe; 5' C6NH2; 3' idT) [Aptamer 160] | > 100 fold worse IC50 vs Aptamer 26 | 
AGGCCGCCUCCGCGCGGAGGAGUUUCAUUACUCCGUUUGGCGGCUU (ssRNA, all G 2'-F; A,C,U 2'-OMe; 5' C6NH2; 3' idT) [Aptamer 131] | > 100 fold worse IC50 vs Aptamer 26 | 
AGGCCGCCGCCGCGCGGAGGGGUUUCAUUAUCCCGUUUGGCGGCUU (ssRNA, all G 2'-F; A,C,U 2'-OMe; 5' C6NH2; 3' idT) [Aptamer 148] |  | binding result (VEGF-A121 [1]): binds
AGGCCGCCUCCGCGCGGAGGGCUUUCAUUAGCCCGUUUGGCGGCUU (ssRNA, all G 2'-F; A,C,U 2'-OMe; 5' C6NH2; 3' idT) [Aptamer 127] | > 100 fold worse IC50 vs Aptamer 26 | 
AGGCCGCCUCCGCGCGGAUGGGUUUCAUUAUCCAGUUUGGCGGCUU (ssRNA, all G 2'-F; A,C,U 2'-OMe; 5' C6NH2; 3' idT) [Aptamer 113] | > 100 fold worse IC50 vs Aptamer 26 | 
AGGCCGUCUCCGCGCGGAGGGGUUUCAUUAUCCCGUUUGACGGCUU (ssRNA, all G 2'-F; A,C,U 2'-OMe; 5' C6NH2; 3' idT) [Aptamer 126] |  | binding result (VEGF-A121 [1]): binds
AGGCCGCCUCCGCGCGGAGGGGUUUCAUUAUCCCCUUUGGCGGCUU (ssRNA, all G 2'-F; A,C,U 2'-OMe; 5' C6NH2; 3' idT) [Aptamer 163] | > 100 fold worse IC50 vs Aptamer 26 | 
AGGCCGCUUCCGCGCGGAGGGGUUUCAUUAUCCCGUUUAGCGGCUU (ssRNA, all G 2'-F; A,C,U 2'-OMe; 5' C6NH2; 3' idT) [Aptamer 123] |  | binding result (VEGF-A121 [1]): binds
AGGCCGCCUCCGCGAGGAGGGGUUUCAUUAUCCCGUUUGGCGGCUU (ssRNA, all G 2'-F; A,C,U 2'-OMe; 5' C6NH2; 3' idT) [Aptamer 158] | > 100 fold worse IC50 vs Aptamer 26 | 
AGGCCGCCUCCGCGCGGCGGGGUUUCAUUAUCCCGUUUGGCGGCUU (ssRNA, all G 2'-F; A,C,U 2'-OMe; 5' C6NH2; 3' idT) [Aptamer 161] | > 100 fold worse IC50 vs Aptamer 26 | 
AGGCCGCCACCGCGCGGAGGGGUUUCAUUAUCCCGUUUGGCGGCUU (ssRNA, all G 2'-F; A,C,U 2'-OMe; 5' C6NH2; 3' idT) [Aptamer 146] | ~3 fold better IC50 vs Aptamer 26 | 
AGGCCGCCUCCGCGCGGAGUGGUUUCAUUAUCACGUUUGGCGGCUU (ssRNA, all G 2'-F; A,C,U 2'-OMe; 5' C6NH2; 3' idT) [Aptamer 116] | > 100 fold worse IC50 vs Aptamer 26 | 
AGGCCGCCUCCGCUCGGAGGGGUUUCAUUAUCCCGUUUGGCGGCUU (ssRNA, all G 2'-F; A,C,U 2'-OMe; 5' C6NH2; 3' idT) [Aptamer 157] | > 100 fold worse IC50 vs Aptamer 26 | 
AGGCCGCCUCCGCGCGGACGGGUUUCAUUAUCCGGUUUGGCGGCUU (ssRNA, all G 2'-F; A,C,U 2'-OMe; 5' C6NH2; 3' idT) [Aptamer 114] | > 100 fold worse IC50 vs Aptamer 26 | 

Binder | binding signal (VEGF-A121 [1]) | also measured
AGGCCGCCUCCGCGCGGAGCGGUUUCAUUAUCGCGUUUGGCGGCUU (ssRNA, all G 2'-F; A,C,U 2'-OMe; 5' C6NH2; 3' idT) [Aptamer 117] | > 100 fold worse IC50 vs Aptamer 26 | 
AGGCCGCCUCCGCCCGGAGGGGUUUCAUUAUCCCGUUUGGCGGCUU (ssRNA, all G 2'-F; A,C,U 2'-OMe; 5' C6NH2; 3' idT) [Aptamer 156] | > 100 fold worse IC50 vs Aptamer 26 | 
AGGCCGCCUCAGCGCUGAGGGGUUUCAUUAUCCCGUUUGGCGGCUU (ssRNA, all G 2'-F; A,C,U 2'-OMe; 5' C6NH2; 3' idT) [Aptamer 178] |  | binding result (VEGF-A121 [1]): binds
AGGCCGCCUCCGCGCGGAAGGGUUUCAUUAUCCUGUUUGGCGGCUU (ssRNA, all G 2'-F; A,C,U 2'-OMe; 5' C6NH2; 3' idT) [Aptamer 112] | > 100 fold worse IC50 vs Aptamer 26 | 
AGGCCGCCUCCGCGGGGAGGGGUUUCAUUAUCCCGUUUGGCGGCUU (ssRNA, all G 2'-F; A,C,U 2'-OMe; 5' C6NH2; 3' idT) [Aptamer 159] | > 100 fold worse IC50 vs Aptamer 26 | 
AGGCCGCCUCCACGCGGAGGGGUUUCAUUAUCCCGUUUGGCGGCUU (ssRNA, all G 2'-F; A,C,U 2'-OMe; 5' C6NH2; 3' idT) [Aptamer 149] | > 100 fold worse IC50 vs Aptamer 26 | 
AGGCCGCCUCCGCACGGAGGGGUUUCAUUAUCCCGUUUGGCGGCUU (ssRNA, all G 2'-F; A,C,U 2'-OMe; 5' C6NH2; 3' idT) [Aptamer 155] | > 100 fold worse IC50 vs Aptamer 26 | 
AGGCCGCCUCCGCGCGGAGGCGUUUCAUUACGCCGUUUGGCGGCUU (ssRNA, all G 2'-F; A,C,U 2'-OMe; 5' C6NH2; 3' idT) [Aptamer 132] | > 100 fold worse IC50 vs Aptamer 26 | 
AGGCCGCCUCCGCGCGGAGGGGUUUCAUUAUCCCUUUUGGCGGCUU (ssRNA, all G 2'-F; A,C,U 2'-OMe; 5' C6NH2; 3' idT) [Aptamer 164] | > 100 fold worse IC50 vs Aptamer 26 | 
AGGCCGCCUCCGCGCGGAGGGGUUUCAUUAUCCCAUUUGGCGGCUU (ssRNA, all G 2'-F; A,C,U 2'-OMe; 5' C6NH2; 3' idT) [Aptamer 162] | > 100 fold worse IC50 vs Aptamer 26 | 
AGGCCGACUCCGCGCGGAGGGGUUUCAUUAUCCCGUUUGUCGGCUU (ssRNA, all G 2'-F; A,C,U 2'-OMe; 5' C6NH2; 3' idT) [Aptamer 125] |  | binding result (VEGF-A121 [1]): binds
CGACCCGCGCGGAGGGGUUUCAUUAUCCCGUUUGUCG (ssRNA, G 2'-F except 2'-OMe-G as X in CXAC-Sp3-CCGCGCGGAGGGXUUUCAUUAUCCCGUUUXUCX; A,C,U 2'-OMe; Sp3 joins the two parts; 5' C6NH2; 3' idT) [Aptamer 234] |  | binding result (VEGF-A121 [2]): binds
AGGCCGAACCGCGCGGAGGGGUUUCAUUAUCCCGUUUUUCGGCUU (ssRNA, all G 2'-F; A,C,U 2'-OMe; Sp3 joins the two parts; 5' C6NH2; 3' idT) [Aptamer 137] |  | binding result (VEGF-A121 [2]): binds
AGGCCGACCCGCGCGGAGGGGUUUCAUUACCCCGUUUGUCGGCUU (ssRNA, all G 2'-F; A,C,U 2'-OMe; Sp3 joins the two parts; 5' C6NH2; 3' idT) [Aptamer 187] |  | binding result (VEGF-A121 [2]): binds
AGGCCGCUCCGCGCGGAGGGGUUUCAUUAUCCCGUUUAGCGGCUU (ssRNA, all G 2'-F; A,C,U 2'-OMe; Sp3 joins the two parts; 5' C6NH2; 3' idT) [Aptamer 144] |  | binding result (VEGF-A121 [2]): binds
AGGCCGUCCCGCGCGGAGGGGUUUCAUUAUCCCGUUUGACGGCUU (ssRNA, all G 2'-F; A,C,U 2'-OMe; Sp3 joins the two parts; 5' C6NH2; 3' idT) [Aptamer 142] |  | binding result (VEGF-A121 [2]): binds
AGGCCGCACCGCGCGGAGGGGUUUCAUUAUCCCGUUUUGCGGCUU (ssRNA, all G 2'-F; A,C,U 2'-OMe; Sp3 joins the two parts; 5' C6NH2; 3' idT) [Aptamer 143] |  | binding result (VEGF-A121 [2]): binds
AGGCCGUACCGCGCGGAGGGGUUUCAUUAUCCCGUUUUACGGCUU (ssRNA, all G 2'-F; A,C,U 2'-OMe; Sp3 joins the two parts; 5' C6NH2; 3' idT) [Aptamer 139] |  | binding result (VEGF-A121 [2]): binds
AGGCCGAUCCGCGCGGAGGGGUUUCAUUAUCCCGUUUAUCGGCUU (ssRNA, all G 2'-F; A,C,U 2'-OMe; Sp3 joins the two parts; 5' C6NH2; 3' idT) [Aptamer 138] |  | binding result (VEGF-A121 [2]): binds
